We go through 4 molecules from patent publication US20210032347A1 (JIANGSU HANSOH PHARMACEUTICAL GROUP, published 2021).

Positions count from the first letter of the chain named. Read-outs that look alike come from different tables or passages of the source.

Experiment [1] concerns the target T1, antigen fragment P12 (TVASAGNIGEDGILSCTFEP) (human).
T1 peptide: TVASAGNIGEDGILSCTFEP
As to the kind of experiment: indirect ELISA on antigen fragment. How it is done: (§1) The method procedures were the same as described in Example 3 (1): in vitro indirect ELISA binding assay. […] To further confirm the epitope to which the antibody binds, alanine scan was performed on the antigen fragment P12, that is, each single amino acid located in P12 was mutated to alanine respectively.
(In an ELISA, binding on a coated surface is turned into a signal by an enzyme label.)

The target of experiment [2] is T2, B7-H4 expressed on cells (MX-1 cells; CHO-S cells stably expressing B7-H4) (human, UniProt Q7Z7D3 25-282).
T2 construct: whole, on cells; also called huB7-H4; antigens expressed by cells
T2 sequence (looked up): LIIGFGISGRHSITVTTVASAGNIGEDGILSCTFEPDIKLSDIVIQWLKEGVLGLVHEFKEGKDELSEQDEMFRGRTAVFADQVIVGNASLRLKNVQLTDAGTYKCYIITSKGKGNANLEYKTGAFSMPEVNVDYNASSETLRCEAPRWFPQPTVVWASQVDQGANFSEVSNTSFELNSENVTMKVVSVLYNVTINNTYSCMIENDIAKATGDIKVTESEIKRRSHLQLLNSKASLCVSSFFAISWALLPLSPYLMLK
Briefly: flow cytometry (FACS) on MX-1 cells. How it is done:
The cultured MX-1 cells were collected, cell density was adjusted with PBS pH 7.4, then plated onto a 96-well V-shaped bottom plate with 1×10⁵ cells per well, and centrifuged at 2000 rpm for 5 minutes to remove supernatant. 100 μl of the serially diluted chimeric antibody solution was added (diluted with 0.5% BSA in PBS to obtain a gradient of 3-fold dilutions, starting from 1 μM, with a total of 10 doses) into each well, mixed, and incubated for 1 hour at 4° C. with shaking; the culture was centrifuged at 2000 rpm for 5 minutes to remove the supernatant, and the cells were washed twice with PBS, and 100 μl of FITC-labeled goat anti-human secondary antibody (Abeam, cat #ab97224) diluted with 0.5% BSA in PBS was added into each well, mixed well and incubated for 30 minutes at 4° C. in a shaker. Centrifugation was performed at 2000 rpm for 5 minutes and the supernatant was removed. Cells were washed twice with PBS and resuspended in PBS. The signals were detected using flow cytometer (BECKMANCOULTER, model DxFLEX), and the concentration curve was plotted and the results were analyzed. As indicated in the table and figure, humanized antibodies 2F7, 2F8, 2G6 and 1C9 show positive bindings to MX-1 cells on which B7-H4 was highly expressed.

Experiment [3] concerns the target T3, antigen fragment TVASAGNIGEDGALSCTFEP (human).
T3 construct: Alanine-scan variant of P12; the entry already carries the alanine; also called P12 alanine mutant (I to A)
T3 peptide: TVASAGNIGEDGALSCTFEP
Briefly: indirect ELISA on antigen fragment, alanine scan. As for the experimental part:
as §1

Experiment [4] concerns the target T4, antigen fragment TVASAGNIGEDGIASCTFEP (human).
T4 construct: Alanine-scan variant of P12; the entry already carries the alanine; also called P12 alanine mutant (L to A)
T4 peptide: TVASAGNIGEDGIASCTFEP
As to the kind of experiment: indirect ELISA on antigen fragment, alanine scan. How it is done: as §1

Experiment [5] concerns the target T5, antigen fragment TVASAGNIGEDGILSATFEP (human).
T5 construct: Alanine-scan variant of P12; the entry already carries the alanine; also called P12 alanine mutant (C to A)
T5 peptide: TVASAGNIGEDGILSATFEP
As to the kind of experiment: indirect ELISA on antigen fragment, alanine scan. As for the experimental part: as §1

Experiment [6] has as its target T6, antigen fragment TVASAGNIGEDGILSCAFEP (human).
T6 construct: Alanine-scan variant of P12; the entry already carries the alanine; also called P12 alanine mutant (T to A)
T6 peptide: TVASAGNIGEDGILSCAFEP
As to the kind of experiment: indirect ELISA on antigen fragment, alanine scan. How it is done: as §1

In experiment [7] the target is T7, antigen fragment TVASAGNIGEDGILSCTAEP (human).
T7 construct: Alanine-scan variant of P12; the entry already carries the alanine; also called P12 alanine mutant (F to A)
T7 peptide: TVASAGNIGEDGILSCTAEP
As to the kind of experiment: indirect ELISA on antigen fragment, alanine scan. How it is done: as §1

The target in experiment [8] is T8, antigen fragment TVASAGNIGEDGILSCTFAP (human).
T8 construct: Alanine-scan variant of P12; the entry already carries the alanine; also called P12 alanine mutant (E to A)
T8 peptide: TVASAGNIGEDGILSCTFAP
As to the kind of experiment: indirect ELISA on antigen fragment, alanine scan. How it is done: as §1

Experiment [9] deals with T9, Human B7-H4 with HisFlag tag (huB7-H4-his) (human, UniProt Q7Z7D3 25-258).
T9 construct: also called HuB7-H4 His protein; huB7-H4-HF
T9 sequence: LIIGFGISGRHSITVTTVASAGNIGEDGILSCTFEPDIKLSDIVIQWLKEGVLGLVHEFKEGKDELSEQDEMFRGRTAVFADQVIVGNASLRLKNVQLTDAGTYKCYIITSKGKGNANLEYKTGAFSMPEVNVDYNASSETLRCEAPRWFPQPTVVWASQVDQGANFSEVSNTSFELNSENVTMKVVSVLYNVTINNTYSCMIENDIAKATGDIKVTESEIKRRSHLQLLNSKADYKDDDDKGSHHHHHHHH
As to the kind of experiment: SPR Biacore T200, antibody coupled to CM5 chip, hu-B7-H4-his in flow, 1:1 model.

Experiment [10] has as its target T1, antigen fragment P12 …. Briefly: indirect ELISA on antigen fragment.
For experiment [11], the target named is T10, antigen fragment TVASAGNIGEDGILSCTFEA (human).
T10 construct: Alanine-scan variant of P12; the entry already carries the alanine; also called P12 alanine mutant (P to A)
T10 peptide: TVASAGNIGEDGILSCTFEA
As to the kind of experiment: indirect ELISA on antigen fragment, alanine scan.

In experiment [12] the target is T3, antigen fragment TVASAGNIGEDGALSCTFEP
Briefly: indirect ELISA on antigen fragment, alanine scan.

The target in experiment [13] is T4, antigen fragment TVASAGNIGEDGIASCTFEP
As to the kind of experiment: indirect ELISA on antigen fragment, alanine scan.

In experiment [14] the target is T5, antigen fragment TVASAGNIGEDGILSATFEP
Briefly: indirect ELISA on antigen fragment, alanine scan.

The target in experiment [15] is T6, antigen fragment TVASAGNIGEDGILSCAFEP
As to the kind of experiment: indirect ELISA on antigen fragment, alanine scan.

The target in experiment [16] is T7, antigen fragment TVASAGNIGEDGILSCTAEP
Briefly: indirect ELISA on antigen fragment, alanine scan.

Experiment [17] addresses T1, antigen fragment P12 …. Briefly: indirect ELISA on antigen fragment.
The target in experiment [18] is T4, antigen fragment TVASAGNIGEDGIASCTFEP
Briefly: indirect ELISA on antigen fragment, alanine scan.

Experiment [19] addresses T5, antigen fragment TVASAGNIGEDGILSATFEP
As to the kind of experiment: indirect ELISA on antigen fragment, alanine scan.

Experiment [20] has as its target T7, antigen fragment TVASAGNIGEDGILSCTAEP
Briefly: indirect ELISA on antigen fragment, alanine scan.

B1: humanized anti-B7-H4 antibody hu2F7 (antibody, human IgG1, kappa, V domains shown)
VH: EVQLVESGGGLVQPGGSLRLSCAASGFTFSNYYMSWVRQAPGKGLEWVAYVSSGGGSTYYSDSVKGRFTISRDNAKNTLYLQMSSLRAEDTAVYYCTRESYSQGNYFDYWGQGTTVTVSS
VL: EIVMTQSPATLSLSPGERATLSCRASQSISDYLHWYQQKPGQSPRLLIKFASQSISGIPARFSGSGSGTDFTLTISSLEPEDFAVYYCQNGHSFSLTFGQGTKLEIKR
notes: human IgG1 / kappa; also called humanized antibody 2F7
A word on the EC50: it is the concentration needed to bring the measured effect to its halfway point. High values mean a less potent agent, low ones a more potent agent. A word on the Kd: it is the equilibrium constant for the complex coming apart. In general, koff refers to the rate constant with which the complex falls apart. High values mean a short-lived complex, low ones a long-lived complex. By kon is commonly meant a measure of how fast the partners come together. A higher kon goes with fast association. For the molecule B1, the EC50 was determined as 118 nM in [1]; 7.32 nM in experiment [2]; 771 nM in experiment [3]; 1480 nM in [4]; 2010 nM in [5]; 463 nM in experiment [6]. Besides, the figures for the EC50 in [7] and in [8] were 986 nM and 662 nM, respectively. In experiment [9], this molecule displayed a Kd of 0.757 nM. In experiment [9], this molecule showed a koff of 0.000249 s⁻¹. In [9], this molecule had a kon of 329000 M⁻¹ s⁻¹.

B2: humanized anti-B7-H4 antibody hu2G6 (antibody, human IgG1, kappa, V domains shown)
VH: EVQLLESGGGLVQPGGSLRLSCAASGFTFSRYGMSWVRQAPGKGLEWVSGINGGGSYTYYLDTVKGRFTISRDNARNTLYLQMSSLRAEDTAVYYCVSQGSNYYFDYWGQGTLVTVSS
VL: DIRMTQSPSSLSASVGDRVTITCHASQGISSNIGWLQQKPGKAPKALIYHGTNLEDGVPSRFSGSGSGADYTLTISSLQPEDFATYYCVQYAQFPYTFGGGTKVEIKR
notes: human IgG1 / kappa; also called humanized antibody 2G6
As to B2, the EC50 in experiment [10] stood at 793 nM; in experiment [2], 14.3 nM; in experiment [11], 2370 nM; in [12], 2630 nM; in experiment [13], 3160 nM; in experiment [14] it was 3480 nM. Also, the EC50 in experiment [15] was found to be 2290 nM; in experiment [16], 2600 nM. The same molecule came in with a Kd in experiment [9] of no more than 0.0135 nM. Also, the koff in experiment [9] is no more than 1e-05 s⁻¹. The molecule further gave a kon in experiment [9] of 741000 M⁻¹ s⁻¹.

B3: humanized anti-B7-H4 antibody hu2F8 (antibody, human IgG1, kappa, V domains shown)
VH: EVQLVQSGAEVKKPGASVKVSCKASGYTFTSSWMNWVRQAPGQRLEWMGGIYPNRGNIEYNEKFKGRVTLTVDTSASTAYMELSSLRSEDTAVYYCARDSRFSYWGQGTLVTVSS
VL: DIQMTQSPSSLSASVGDRVTITCKASQDVRTAVAWYQQKPGKAPKLLISSTSYRYTGVPSRFSGSGSGTDFTFTISSLQPEDIATYYCQQHYSTPLTFGGGTKVEIKR
notes: human IgG1 / kappa; also called humanized antibody 2F8
In experiment [2], B3 registered an EC50 of 7.26 nM. In experiment [9], this molecule yielded a Kd of 0.25 nM, an off-rate constant (koff) of 0.000112 s⁻¹ and a kon of 447000 M⁻¹ s⁻¹.

B4: humanized anti-B7-H4 antibody hu1C9 (antibody, human IgG1, kappa, V domains shown)
VH: B3 VH with Y27D, S31T, S32Y, P53L, N57S, I58S
VL: B3 VL with R30S, T51A, S93N
notes: human IgG1 / kappa; also called humanized antibody 1C9
With B4, the EC50 was 272 nM in experiment [17]; 7.25 nM in experiment [2]; 467 nM in experiment [18]; 292 nM in experiment [19]; 488 nM in experiment [20]. The same molecule displayed a Kd in experiment [9] of no more than 0.0298 nM. This molecule also returned a koff in experiment [9] of no more than 1e-05 s⁻¹. This molecule displayed an on-rate (kon) in experiment [9] of 335000 M⁻¹ s⁻¹.
